Among the data in US6086895 are % binding in relation to control without lysate values, retold here.

In this assay the target is fibronectin (125I labelled). Kind of assay: inhibition assay in tubes; control lysate undiluted; 125I fibronectin bound to S. aureus Cowan I cells (competitor).

“lysate of E. coli TG1 with pUC18-vector without insert (negative control) (pool or library)” yielded a % binding in relation to control without lysate of 83.3%.
